# Measured values taken from US9957297B2, “Template-fixed peptidomimetics as inhibitors of FPR1” (POLYPHOR AG, priority 2011, dated 2018).
# Bridges are numbered along the chain shown (N, C = ends). Primed or numbered codes have the meaning given here. [ ]: non-standard residue; d: D form. Phe(4-CF3) = N[C@@H](Cc1ccc(C(F)(F)F)cc1)C(=O)O; dPro(4S-NH2) = N[C@@H]1CN[C@@H](C(=O)O)C1; dTic = O=C(O)[C@H]1Cc2ccccc2CN1; dPip′ = not defined here; Dab = NCC[C@H](N)C(=O)O
# B1: cyclo(-Tyr-His-Lys-Cys-His-Gly-^DPro-Trp-Thr-Ile-Cys-Tyr-Glu-Trp-^DPro-Pro-) (peptide)
# peptide: cyclo(YHKCHG[dP]WTICYEW[dP]P)
# modifications: disulfide 4-11
# SMILES: CC[C@H](C)[C@@H]1NC(=O)[C@H]([C@@H](C)O)NC(=O)[C@H](Cc2c[nH]c3ccccc23)NC(=O)[C@H]2CCCN2C(=O)CNC(=O)[C@H](Cc2c[nH]cn2)NC(=O)[C@@H]2CSSC[C@H](NC1=O)C(=O)N[C@@H](Cc1ccc(O)cc1)C(=O)N[C@@H](CCC(=O)O)C(=O)N[C@@H](Cc1c[nH]c3ccccc13)C(=O)N1CCC[C@@H]1C(=O)N1CCC[C@H]1C(=O)N[C@@H](Cc1ccc(O)cc1)C(=O)N[C@@H](Cc1c[nH]cn1)C(=O)N[C@@H](CCCCN)C(=O)N2
# B2: cyclo(-Tyr-His-Lys-Cys-Trp-Gly-^DPro-Trp-Thr-Ile-Cys-Tyr-Glu-Lys-^DLys-Pro-) (peptide)
# peptide: cyclo(YHKCWG[dP]WTICYEK[dK]P)
# modifications: disulfide 4-11
# SMILES: CC[C@H](C)[C@@H]1NC(=O)[C@H]([C@@H](C)O)NC(=O)[C@H](Cc2c[nH]c3ccccc23)NC(=O)[C@H]2CCCN2C(=O)CNC(=O)[C@H](Cc2c[nH]c3ccccc23)NC(=O)[C@@H]2CSSC[C@H](NC1=O)C(=O)N[C@@H](Cc1ccc(O)cc1)C(=O)N[C@@H](CCC(=O)O)C(=O)N[C@@H](CCCCN)C(=O)N[C@H](CCCCN)C(=O)N1CCC[C@H]1C(=O)N[C@@H](Cc1ccc(O)cc1)C(=O)N[C@@H](Cc1c[nH]cn1)C(=O)N[C@@H](CCCCN)C(=O)N2
# B3: cyclo(-Tyr-His-Lys-Cys-Trp-Gly-^DPro-Trp-Thr-Ile-Cys-Tyr-Glu-Dab-^DPro-Pro-) (peptide)
# peptide: cyclo(YHKCWG[dP]WTICYE[Dab][dP]P)
# modifications: disulfide 4-11
# B4: cyclo(-Tyr-His-Lys-Cys-His-Gly-^DPro-Trp-Thr-Ile-Cys-Tyr-Glu-Glu-^DPro-Pro-) (peptide)
# peptide: cyclo(YHKCHG[dP]WTICYEE[dP]P)
# modifications: disulfide 4-11
# SMILES: CC[C@H](C)[C@@H]1NC(=O)[C@H]([C@@H](C)O)NC(=O)[C@H](Cc2c[nH]c3ccccc23)NC(=O)[C@H]2CCCN2C(=O)CNC(=O)[C@H](Cc2c[nH]cn2)NC(=O)[C@@H]2CSSC[C@H](NC1=O)C(=O)N[C@@H](Cc1ccc(O)cc1)C(=O)N[C@@H](CCC(=O)O)C(=O)N[C@@H](CCC(=O)O)C(=O)N1CCC[C@@H]1C(=O)N1CCC[C@H]1C(=O)N[C@@H](Cc1ccc(O)cc1)C(=O)N[C@@H](Cc1c[nH]cn1)C(=O)N[C@@H](CCCCN)C(=O)N2
# B5: cyclo(-Tyr-His-Lys-Cys-His-Gly-^DPro-Trp-Thr-Ile-Cys-Tyr-Glu-Lys-^DPip-Pro-) (peptide)
# peptide: cyclo(YHKCHG[dP]WTICYEK[dPip′]P)
# modifications: disulfide 4-11
# B6: cyclo(-Tyr-His-Lys-Cys-His-Gly-^DPro-Trp-Thr-Ile-Cys-Tyr-Glu-Lys-^DTic-Pro-) (peptide)
# peptide: cyclo(YHKCHG[dP]WTICYEK[dTic]P)
# modifications: disulfide 4-11
# SMILES: CC[C@H](C)[C@@H]1NC(=O)[C@H]([C@@H](C)O)NC(=O)[C@H](Cc2c[nH]c3ccccc23)NC(=O)[C@H]2CCCN2C(=O)CNC(=O)[C@H](Cc2c[nH]cn2)NC(=O)[C@@H]2CSSC[C@H](NC1=O)C(=O)N[C@@H](Cc1ccc(O)cc1)C(=O)N[C@@H](CCC(=O)O)C(=O)N[C@@H](CCCCN)C(=O)N1Cc3ccccc3C[C@@H]1C(=O)N1CCC[C@H]1C(=O)N[C@@H](Cc1ccc(O)cc1)C(=O)N[C@@H](Cc1c[nH]cn1)C(=O)N[C@@H](CCCCN)C(=O)N2
# B7: cyclo(-Tyr-His-Lys-Cys-Trp-Gly-^DPro-Trp-Thr-Ile-Cys-Tyr-Glu-Lys-^DPro-Pro-) (peptide)
# peptide: cyclo(YHKCWG[dP]WTICYEK[dP]P)
# modifications: disulfide 4-11
# SMILES: CC[C@H](C)[C@@H]1NC(=O)[C@H]([C@@H](C)O)NC(=O)[C@H](Cc2c[nH]c3ccccc23)NC(=O)[C@H]2CCCN2C(=O)CNC(=O)[C@H](Cc2c[nH]c3ccccc23)NC(=O)[C@@H]2CSSC[C@H](NC1=O)C(=O)N[C@@H](Cc1ccc(O)cc1)C(=O)N[C@@H](CCC(=O)O)C(=O)N[C@@H](CCCCN)C(=O)N1CCC[C@@H]1C(=O)N1CCC[C@H]1C(=O)N[C@@H](Cc1ccc(O)cc1)C(=O)N[C@@H](Cc1c[nH]cn1)C(=O)N[C@@H](CCCCN)C(=O)N2
# B8: cyclo(-Tyr-His-Lys-Cys-His-Gly-^DAla-Trp-Thr-Ile-Cys-Tyr-Glu-Lys-^DPro-Glu-) (peptide)
# peptide: cyclo(YHKCHG[dA]WTICYEK[dP]E)
# modifications: disulfide 4-11
# SMILES: CC[C@H](C)[C@@H]1NC(=O)[C@H]([C@@H](C)O)NC(=O)[C@H](Cc2c[nH]c3ccccc23)NC(=O)[C@@H](C)NC(=O)CNC(=O)[C@H](Cc2c[nH]cn2)NC(=O)[C@@H]2CSSC[C@H](NC1=O)C(=O)N[C@@H](Cc1ccc(O)cc1)C(=O)N[C@@H](CCC(=O)O)C(=O)N[C@@H](CCCCN)C(=O)N1CCC[C@@H]1C(=O)N[C@@H](CCC(=O)O)C(=O)N[C@@H](Cc1ccc(O)cc1)C(=O)N[C@@H](Cc1c[nH]cn1)C(=O)N[C@@H](CCCCN)C(=O)N2
# B9: cyclo(-Tyr-His-Lys-Cys-Trp-Gly-^DPro-Trp-Thr-Ile-Cys-Tyr-Glu-Lys-^DAla-Pro-) (peptide)
# peptide: cyclo(YHKCWG[dP]WTICYEK[dA]P)
# modifications: disulfide 4-11
# SMILES: CC[C@H](C)[C@@H]1NC(=O)[C@H]([C@@H](C)O)NC(=O)[C@H](Cc2c[nH]c3ccccc23)NC(=O)[C@H]2CCCN2C(=O)CNC(=O)[C@H](Cc2c[nH]c3ccccc23)NC(=O)[C@@H]2CSSC[C@H](NC1=O)C(=O)N[C@@H](Cc1ccc(O)cc1)C(=O)N[C@@H](CCC(=O)O)C(=O)N[C@@H](CCCCN)C(=O)N[C@H](C)C(=O)N1CCC[C@H]1C(=O)N[C@@H](Cc1ccc(O)cc1)C(=O)N[C@@H](Cc1c[nH]cn1)C(=O)N[C@@H](CCCCN)C(=O)N2
# B10: cyclo(-Tyr-His-Lys-Cys-His-Gly-^DPro-Trp-Thr-Ile-Cys-Tyr-Glu-Lys-^DPro((4S)NH2)-Pro-) (peptide)
# peptide: cyclo(YHKCHG[dP]WTICYEK[dPro(4S-NH2)]P)
# modifications: disulfide 4-11
# B11: cyclo(-Tyr-His-Lys-Cys-His-Gly-^DPro-Trp-Thr-Ile-Cys-Tyr-Glu-Lys-^DAla-Pro-) (peptide)
# peptide: cyclo(YHKCHG[dP]WTICYEK[dA]P)
# modifications: disulfide 4-11
# SMILES: CC[C@H](C)[C@@H]1NC(=O)[C@H]([C@@H](C)O)NC(=O)[C@H](Cc2c[nH]c3ccccc23)NC(=O)[C@H]2CCCN2C(=O)CNC(=O)[C@H](Cc2c[nH]cn2)NC(=O)[C@@H]2CSSC[C@H](NC1=O)C(=O)N[C@@H](Cc1ccc(O)cc1)C(=O)N[C@@H](CCC(=O)O)C(=O)N[C@@H](CCCCN)C(=O)N[C@H](C)C(=O)N1CCC[C@H]1C(=O)N[C@@H](Cc1ccc(O)cc1)C(=O)N[C@@H](Cc1c[nH]cn1)C(=O)N[C@@H](CCCCN)C(=O)N2
# B12: cyclo(-Tyr-His-Lys-Cys-His-Gly-^DPro-Trp-Thr-Ile-Cys-Tyr-Glu-Lys-^DLys-Pro-) (peptide)
# peptide: cyclo(YHKCHG[dP]WTICYEK[dK]P)
# modifications: disulfide 4-11
# SMILES: CC[C@H](C)[C@@H]1NC(=O)[C@H]([C@@H](C)O)NC(=O)[C@H](Cc2c[nH]c3ccccc23)NC(=O)[C@H]2CCCN2C(=O)CNC(=O)[C@H](Cc2c[nH]cn2)NC(=O)[C@@H]2CSSC[C@H](NC1=O)C(=O)N[C@@H](Cc1ccc(O)cc1)C(=O)N[C@@H](CCC(=O)O)C(=O)N[C@@H](CCCCN)C(=O)N[C@H](CCCCN)C(=O)N1CCC[C@H]1C(=O)N[C@@H](Cc1ccc(O)cc1)C(=O)N[C@@H](Cc1c[nH]cn1)C(=O)N[C@@H](CCCCN)C(=O)N2
# B13: cyclo(-Tyr-His-Lys-Cys-His-Gly-^DPro-Trp-Thr-Ile-Cys-Tyr-Glu-Lys-^DLys-Glu-) (peptide)
# peptide: cyclo(YHKCHG[dP]WTICYEK[dK]E)
# modifications: disulfide 4-11
# SMILES: CC[C@H](C)[C@@H]1NC(=O)[C@H]([C@@H](C)O)NC(=O)[C@H](Cc2c[nH]c3ccccc23)NC(=O)[C@H]2CCCN2C(=O)CNC(=O)[C@H](Cc2c[nH]cn2)NC(=O)[C@@H]2CSSC[C@H](NC1=O)C(=O)N[C@@H](Cc1ccc(O)cc1)C(=O)N[C@@H](CCC(=O)O)C(=O)N[C@@H](CCCCN)C(=O)N[C@H](CCCCN)C(=O)N[C@@H](CCC(=O)O)C(=O)N[C@@H](Cc1ccc(O)cc1)C(=O)N[C@@H](Cc1c[nH]cn1)C(=O)N[C@@H](CCCCN)C(=O)N2
# B14: cyclo(-Tyr-His-Lys-Cys-His-Gly-^DPro-Trp-Thr-Ile-Cys-Tyr-Glu-Lys-^DPro((4S)OH)-Pro-) (peptide)
# peptide: cyclo(YHKCHG[dP]WTICYEK[dPro((4S)OH)]P)
# modifications: disulfide 4-11
# B15: cyclo(-Tyr-His-Lys-Cys-Tyr-Gly-^DPro-Trp-Thr-Ile-Cys-Tyr-Glu-Lys-^DPro-Pro-) (peptide)
# peptide: cyclo(YHKCYG[dP]WTICYEK[dP]P)
# modifications: disulfide 4-11
# SMILES: CC[C@H](C)[C@@H]1NC(=O)[C@H]([C@@H](C)O)NC(=O)[C@H](Cc2c[nH]c3ccccc23)NC(=O)[C@H]2CCCN2C(=O)CNC(=O)[C@H](Cc2ccc(O)cc2)NC(=O)[C@@H]2CSSC[C@H](NC1=O)C(=O)N[C@@H](Cc1ccc(O)cc1)C(=O)N[C@@H](CCC(=O)O)C(=O)N[C@@H](CCCCN)C(=O)N1CCC[C@@H]1C(=O)N1CCC[C@H]1C(=O)N[C@@H](Cc1ccc(O)cc1)C(=O)N[C@@H](Cc1c[nH]cn1)C(=O)N[C@@H](CCCCN)C(=O)N2
# B16: cyclo(-Tyr-His-Lys-Cys-Phe(4CF3)-Gly-^DPro-Trp-Thr-Ile-Cys-Tyr-Glu-Lys-^DPro-Pro-) (peptide)
# peptide: cyclo(YHKC[Phe(4-CF3)]G[dP]WTICYEK[dP]P)
# modifications: disulfide 4-11
# SMILES: CC[C@H](C)[C@@H]1NC(=O)[C@H]([C@@H](C)O)NC(=O)[C@H](Cc2c[nH]c3ccccc23)NC(=O)[C@H]2CCCN2C(=O)CNC(=O)[C@H](Cc2ccc(C(F)(F)F)cc2)NC(=O)[C@@H]2CSSC[C@H](NC1=O)C(=O)N[C@@H](Cc1ccc(O)cc1)C(=O)N[C@@H](CCC(=O)O)C(=O)N[C@@H](CCCCN)C(=O)N1CCC[C@@H]1C(=O)N1CCC[C@H]1C(=O)N[C@@H](Cc1ccc(O)cc1)C(=O)N[C@@H](Cc1c[nH]cn1)C(=O)N[C@@H](CCCCN)C(=O)N2
# Target: T1, Formyl-Peptide Receptor 1 (UniProt P21462 1-350, limits assumed)
# T1 sequence (looked up): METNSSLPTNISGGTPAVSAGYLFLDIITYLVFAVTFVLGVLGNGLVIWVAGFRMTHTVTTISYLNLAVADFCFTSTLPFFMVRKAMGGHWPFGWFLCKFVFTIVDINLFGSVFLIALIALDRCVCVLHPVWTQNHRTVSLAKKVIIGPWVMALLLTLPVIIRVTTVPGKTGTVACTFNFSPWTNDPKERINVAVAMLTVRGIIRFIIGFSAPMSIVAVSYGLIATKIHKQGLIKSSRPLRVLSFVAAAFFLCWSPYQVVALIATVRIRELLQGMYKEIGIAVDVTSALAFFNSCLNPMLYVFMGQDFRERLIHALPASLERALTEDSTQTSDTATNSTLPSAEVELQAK
# Experiment: cell-based or functional assay
row,Binder,β-Arrestin IC50
1,B1,0.016 µM
2,B2,0.126 µM
3,B3,0.053 µM
4,B4,0.057 µM
5,B5,0.029 µM
6,B6,0.056 µM
7,B7,0.054 µM
8,B8,0.077 µM
9,B9,0.126 µM
10,B10,0.041 µM
11,B11,0.065 µM
12,B12,0.385 µM
13,B13,0.124 µM
14,B14,0.039 µM
15,B15,0.022 µM
16,B16,0.172 µM
